In assay [1] the test system is patient-derived xenograft models of pancreatic cancer. The conditions noted are these: cited from earlier work.
The subject of another assay is MDA-MB-175-VII cells. The experiment in a line: WST-1 metabolic activity, parental and pertuzumab resistant cells (Example 5). It is filed as cell-based, human. The conditions noted are these: 96 hours. The method, then:
Cells were split once or twice a week in order to keep cells in exponential growth. The level of resistance was tested every month in a WST-1 viability assay as described in Example 2, until a pool of resistant cells was established.
Metabolic activity was determined after 96 hours incubation using a similar WST-1 assay as described in Example 2.

In the next assay the test system is cynomolgus EGFR. The experiment in a line: Kinetic binding analysis by surface plasmon resonance (ProteOn XPR36, IgG capture). The following applies: Cynomolgus antigen. The protocol: (§1) Kinetic binding analysis of the purified humanized variants was performed on a ProteOn™ XPR36 biosensor (BioRad, USA) employing an IgG capture assay as described by Canziani et al. (Anal. Biochem. (2004) 325:301-307) that allows for measurement of antibody affinities of whole IgG molecules against soluble antigen under monovalent conditions. Briefly, approximately 5000 resonance units (RU) of a monoclonal mouse anti-human IgG Fc antibody (GE Healthcare, Denmark) was conjugated to a GLC chip surface (BioRad, USA) according to the manufacturer's instructions, followed by capture of individual antibodies of the invention or a negative control on the anti-Fc sensor surface. […] Next, 250 μl monovalent antigen (Sino Biologicals) was injected at a flow rate of 50 μl/min in serial threefold dilutions from 100 nM stock to generate response curves. The chip surface was regenerated between cycles by stripping the captured antibody/antigen complexes off the surface with a 10-second injection of 3 M MgCl2 (GE Healthcare, Denmark) repeated three times. Finally, binding responses were fitted to a Langmuir 1:1 binding model for calculation of the on-rate (kon or ka), off-rate (koff or kd) and affinity (KD) constants using double referencing.

Assay [2] concerns EGFR, HER2 and HER3 in H292 cells. The experiment in a line: Western blot of EGFR, HER2 and HER3 in whole cell lysates (Example 6). Type of assay: cell-based, human. The following applies: H292, 20 μg/ml, 48 hour. A general note: Immunoblotting shows a protein as a band on a membrane.
In assay [3] the test system is EGFR, HER2 and HER3 from humans, cynomolgus monkeys and mice, human and murine HER4. The experiment in a line: Cross-reactivity ELISA with coated antigens. The conditions noted are these: OD at 450 nm, 40 nM antibody, compared to chimeric parent. It is filed as binding, mouse. The protocol: Antibody-antigen binding was measured by ELISA with coated antigens. Human antigens were obtained from Sino Biologicals. All other antigens were produced in-house by transient expression in CHO or HEK293 cells. Chimeric and humanized antibodies, as well as an isotype control antibody, were incubated with the coated antigens at different concentrations. After wash, bound antibodies were detected by HRP-(horse radish peroxidase)-conjugated secondary antibodies. The OD signal from 40 nM antibody, measured at 450 nm using an ELISA reader, was scored from negative (−; OD<0.1) to strongly positive (+++; OD>2.5).
On the technique in general: An ELISA detects its analyte on a solid surface through an enzyme-linked reagent.

For the next assay, the system named is cynomolgus HER3. Kind of assay: Kinetic binding analysis by surface plasmon resonance (ProteOn XPR36, IgG capture). The following applies: Cynomolgus antigen. The method, then: as §1
Another assay addresses T1, human HER3 (Homo sapiens, UniProt P21860).
T1 construct: against soluble antigen under monovalent conditions; purchased Sino Biologicals
The description is as above. The following applies: Human antigen. The protocol: as §1

For assay [4], the system named is A431NS, H358, FaDu, OE19, BT474, MDA-MB-175 VII, MCF-7, N87, HN5, MFE-280 cancer cell lines. Kind of assay: Viability assay (WST-1) of humanized variants with partner antibody and of six-antibody mixtures. Type of assay: cell-based, human. The following applies: two cell lines per variant, 96 hours. The protocol:
Each humanized variant was tested in two cell lines and compared to the parental mixture of two chimeric antibodies and to a negative control antibody. […] In addition, a combination of six humanized variants (11294, 11302, 11249, 11145, 10738 and 11052; Humanized Pan-HER) was tested in a number of cell lines and compared to the combination of the six chimeric antibodies (1277, 1565, 4384, 4517, 5038 and 5082; Chimeric Pan-HER). The cell lines used, N87 gastric, FaDu head and neck, A431NS epidermoid, OE19 esophageal, HN5 head and neck, MDA-MB-175 VII breast and MFE-280 endometrial cancer, were selected on the basis of their previously determined dependency on the HER family receptors.
Prior to performing the viability assay the appropriate antibodies and antibody mixtures were diluted to a final total antibody concentration of 100 μg/ml in appropriate media supplemented with 0.5-2% FBS and 1% P/S (penicillin/streptomycin), yielding a final total antibody concentration of 50 μg/ml in the well containing the highest antibody concentration. A threefold serial dilution of the antibodies was then performed in a 384-well plate, followed by addition of relevant numbers of cells to the experimental wells. The MCF-7 cells were also stimulated with 1 nM heregulin beta. The plates were incubated for 4 days in a humidified incubator at 37° C. WST-1 reagent (Roche Applied Science, Mannheim, Germany) was added to the plates and the plates were incubated for 1-3 h at 37° C. Plates were transferred to an orbital plate shaker for one h and the absorbance was measured at 450 and 620 nm (reference wavelength) using an ELISA reader. The percentage of metabolically active cells (MAC) is calculated as a percentage of the untreated control as follows: […]

Assay [5] deals with EGFR, HER2 and HER3 in OVCAR-8 cells. Kind of assay: Western blot of EGFR, HER2 and HER3 in whole cell lysates (Example 6). It is filed as cell-based, human. The conditions noted are these: OVCAR-8, 20 μg/ml, 48 hour.

Where two headings read alike, the source gives them in different places.

Regarding `C#Cc1cccc(Nc2ncnc3cc(OCCOC)c(OCCOC)cc23)c1` [Erlotinib], the Erlotinib resistant entry is reported as “Yes” in assay [1] (model ST191); “Yes” in assay [1] (model ST334); “Yes” in [1] (model ST383); “Yes” in [1] (model ST385); “No” in assay [1] (model STS021); “Yes” in [1] (model STS058). Besides, in [1] (model STS059), the Erlotinib resistant result was “Yes”.
Consider pertuzumab, for which the figures for the metabolic activity result in the assay with MDA-MB-175-VII cells (parental MDA-MB-175-VII cells) and with MDA-MB-175-VII cells (pertuzumab resistant MDA-MB-175-VII cells) were “reduced” and “unaltered”, respectively.

B1: antibody 1277: chimeric parent anti-EGFR antibody disclosed in WO 2012/059857; VH SEQ ID NO: 15, light chain SEQ ID NO: 17 (antibody)
VH: RAEVQLVESGGGLVKPGESLKLSCAASGFAFSYSDMSWVRQTPEKRLEWVAYMSSAGDVTFYSDTVKGRFTISRDNAKNTLYLQVSSLKSEDTAIYYCVRHRDVAMDYWGQGTSVTVS
light: LADVVMTQTPLSLPVSLGDQASISCRSSQSLVHSNGNTYLHWYLQKPGQSPKLLIYKVSNRFSGVPDRFSGSGSGTDFTLKISRVEAEDLGVYFCSQSTHVPTFGGGTKLEIKRTVAAPSVFIFPPSDEQLKSGTASVVCLLNNFYPREAKVQWKVDNALQSGNSQESVTEQDSKDSTYSLSSTLTLSKADYEKHKVYACEVTHQGLSSPVTKSFNRGEC
In the assay on cynomolgus EGFR, B1 came in with a ka of 660000 M⁻¹ s⁻¹ and a kd of 0.00039 s⁻¹. The “EGFR, HER2 and HER3 levels in whole cell lysates” value (shortened to “EGFR, HER2 and HER3 levels”) in assay [2] is given as “HER2 upregulation”.

B2: antibody 11052: humanized anti-HER3 antibody from chimeric parent 5082; HC SEQ ID NO: 60, LC SEQ ID NO: 61 (antibody, V domains shown)
VH: QVQLQESGPGLVKPSQTLSLTCTVSGYSITSAYYWNWIRQFPGKGVEWMGYIGYSGRNTYNPSLKNRVTISRDTSKNQFSLKLSSVTAADTAVYYCSREGDYGYSDYWGQGTLVTVSS
VL: DIQMTQSPSSLSASVGDRVTVTCRASQDINNYLNWYQQKPGKAVKLLIYYTSRLQSGVPSRFSGSGSGTDYTLTISSLQPEDFATYFCQQSETLPWTFGQGTKLEIK
Take B2: the “cross-reactivity pattern with HER family antigens” value in assay [3] is “binding to the same human and cynomolgus antigen combined with lack of binding to the mouse antigen or to other EGFR family receptors”. Further, in the assay with cynomolgus HER3, the ka was determined as 1.3e+06 M⁻¹ s⁻¹ and the kd stood at 0.00026 s⁻¹. In the assay with human HER3, this molecule showed a ka of 870000 M⁻¹ s⁻¹ and a kd of 0.00016 s⁻¹. Further, the “anti-proliferative effect in combination with partner antibody, compared to mixture of the two chimeric parent antibodies” value in assay [4] is “highly similar anti-proliferative effects”.

B3: MM-121: anti-HER3 treatment lane in the OVCAR-8 Western blot (antibody, chains of the INN, looked up)
heavy: EVQLLESGGGLVQPGGSLRLSCAASGFTFSHYVMAWVRQAPGKGLEWVSSISSSGGWTLYADSVKGRFTISRDNSKNTLYLQMNSLRAEDTAVYYCTRGLKMATIFDYWGQGTLVTVSSASTKGPSVFPLAPCSRSTSESTAALGCLVKDYFPEPVTVSWNSGALTSGVHTFPAVLQSSGLYSLSSVVTVPSSNFGTQTYTCNVDHKPSNTKVDKTVERKCCVECPPCPAPPVAGPSVFLFPPKPKDTLMISRTPEVTCVVVDVSHEDPEVQFNWYVDGVEVHNAKTKPREEQFNSTFRVVSVLTVVHQDWLNGKEYKCKVSNKGLPAPIEKTISKTKGQPREPQVYTLPPSREEMTKNQVSLTCLVKGFYPSDIAVEWESNGQPENNYKTTPPMLDSDGSFFLYSKLTVDKSRWQQGNVFSCSVMHEALHNHYTQKSLSLSPG
light: QSALTQPASVSGSPGQSITISCTGTSSDVGSYNVVSWYQQHPGKAPKLIIYEVSQRPSGVSNRFSGSKSGNTASLTISGLQTEDEADYYCCSYAGSSIFVIFGGGTKVTVLGQPKAAPSVTLFPPSSEELQANKATLVCLVSDFYPGAVTVAWKADGSPVKVGVETTKPSKQSNNKYAASSYLSLTPEQWKSHRSYSCRVTHEGSTVEKTVAPAECS
Take B3: the “EGFR, HER2 and HER3 levels” value in [5] is recorded as “HER2 up-regulation”.

B4: antibody 1565: chimeric parent anti-EGFR antibody disclosed in WO 2012/059857; VH SEQ ID NO: 19, light chain SEQ ID NO: 21 (antibody)
VH: RAEVQLQQSGTELVKPGASVILSCKASGYTFTSYWMQWVKQRPGQGLEWIGNINPSNGGTSFNEEFKSRATLTVDKSSSTAYMQLSSLTSEDSAVYYCARDGGLYDGYYFDFWGQGTTLTVS
light: LANIVMTQSHKFMSTLIGARVSITCKASQDVDTAVAWYQQKPGQSPKLLIYWASTRHTGVPDRFTGSGSGTDFSLTVSNVQSEDLTDYFCQQYSSYPLTFGAGTKLELKRTVAAPSVFIFPPSDEQLKSGTASVVCLLNNFYPREAKVQWKVDNALQSGNSQESVTEQDSKDSTYSLSSTLTLSKADYEKHKVYACEVTHQGLSSPVTKSFNRGEC
In the assay on cynomolgus EGFR, B4 had a ka of 580000 M⁻¹ s⁻¹ and a kd of 0.016 s⁻¹. In assay [2], the “EGFR, HER2 and HER3 levels” value was “HER2 upregulation”.

B5: antibody 10810: humanized anti-HER3 antibody from chimeric parent 5038; HC SEQ ID NO: 56, LC SEQ ID NO: 57 (antibody, V domains shown)
VH: QVQLQESGPGLVKPSQTLSLTCTVSGYSITSGFYWTWIRQHPGNGLEWIGFISYSGSNNYNPSLKNRVTISVDTSKNQFSLKLSSVTAADTATYYCARGGGYYGNLFDYWGQGTLVTVSS
VL: DIQMTQSPSSLSASVGDRVTITCRPSQDISNYVNWFQQKPGKAPKLLIFHTSRLHSGVPSRFSGSGSGTDFTLTISSLQPEDIATYYCQQGITLPWTFGQGTKVEIK
Consider B5, for which the “cross-reactivity pattern with HER family antigens” value in [3] is “binding to the same human and cynomolgus antigen combined with lack of binding to the mouse antigen or to other EGFR family receptors”. In the assay on cynomolgus HER3, this molecule displayed a ka of 470000 M⁻¹ s⁻¹ and a kd of 0.00034 s⁻¹. In the assay with human HER3, this molecule displayed a ka of 190000 M⁻¹ s⁻¹ and a kd of 0.0002 s⁻¹. Moreover, in assay [4], the “anti-proliferative effect in combination with partner antibody, compared to mixture of the two chimeric parent antibodies” value was “highly similar anti-proliferative effects”.
